B1: recombinant human bone sialoprotein (rBSP) (ligand)
chain: FSMKNLHRRVKIEDSEENGVFKYRPRYYLYKHAYFYPHLKRFPVQGSSDSSEENGDDSSEEEEEEEETSNEGENNEESNEDEDSEAENTTLSATTLGYGEDATPGTGYTGLAAIQLPKKAGDITNKATKEKESDEEEEEEEEGNENEESEAEVDENEQGINGTSTNSTEAENGNGSSGGDNGEEGEEESVTGANAEGTTETGGQGKGTSKTTTSPNGGFEPTTPPQVYRTTSPPFGKTTTVEYEGEYEYTGVNEYDNGYEIYESENGEPRGDNYRAYEDEYSYFKGQGYDGYDGQNYYHHQ
modifications: post-translationally modified by the producing human marrow stromal fibroblasts (glycosylation, sulfation, phosphorylation; sites not stated)
notes: Range 17-317 follows the stated 16-residue leader; not checked against the listing; also called recombinant BSP; purified human BSP
B2: recombinant dentin matrix protein 1 (rDMP1) (ligand)
chain: LPVTRYQNNESEDSEEWKGHLAQAPTPPLESSESSEGSKVSSEEQANEDPSDSTQSEEGLGSDDHQYIYRLAGGFSRSTGKGGDDKDDDEDDSGDDTFGDDDSGPGPKDRQEGGNSRLGSDEDSDDTIQASEESAPQGQDSAQDTTSESRELDNEDRVDSKPEGGDSTQESESEEHWVGGGSDGESSHGDGSELDDEGMQSDDPESIRSERGNSRMNSAGMKSKESGENSEQANTQDSGGSQLLEHPSRKIFRKSRISEEDDRSELDDNNTMEEVKSDSTENSNSRDTGLSQPRRDSKGDSQEDSKENLSQEESQNVDGPSSESSQEANLSSQENSSESQEEVVSESRGDNPDPTTSYVEDQEDSDSSEEDSSHTLSHSKSESREEQADSESSESLNFSEESPESPEDENSSSQEGLQSHSSSAESQSEESHSEEDDSDSQDSSRSKEDSNSTESKSSSEEDGQLKNIEIESRKLTVDAYHNKPIGDQDDNDCQDGY

Key:
[1] = molecular target: T1, αVβ3 integrin on murine erythroleukemia (MEL) cells (murine (MEL cells), UniProt P43406 31-1044; O54890 26-787); experiment: inferred from MEL cell complement lysis assay with GRGDS peptide, αVβ3 antibody and RGD->KAE mutant
T1 construct: whole, on cells; also called integrins; cell surface integrins
Procedure: MEL cells prepared as in FIG. 8 were treated with normal rBSP (10 μg/mL), rBSP whose RGD sequence had been mutated to KAE ([…]), and either GRGDS (SEQ ID NO: 10) peptide (400 μM) followed by rBSP or an αVβ3 antibody (1:4000) followed by rBSP for 10 minutes prior to the addition of normal human serum. The cells were then incubated for 10 minutes after which cell viability determined using the MTT assay (A). A cohort of MEL cells were pretreated with rOPN (10 μg/mL) alone, GRGDS (SEQ ID NO: 10) peptide followed by rOPN, the αVβ3 antibody followed by rOPN, or an anti-CD44 antibody (Chemicon, Co.) followed by rOPN, or hyaluronan (HA) followed by rOPN (B). Cells were then treated with normal human serum and viability assayed as in FIG. 8. […] Statistical significance was determined by analysis of variance. Percent cell viability was determined using A560 absorbance values of various conditions and a control where no serum had been added (100% viable). […]
Murine erytliroleukemia (MEL) cells (a gift of Dr. Marilyn Farquhar, Univ. CA San Diego.) grown in DMEM containing 10% fetal bovine serum and 4 mM glutamine were rinsed three times with gelatin veronal buffer with Mg_2^+ and EGTA (GVB-MgEGTA, Sigma, St. Louis, Mo.). […] Cell viability was determined spectrophotometrically by absorbance at 560 nm.

[2] = molecular target: T2, human complement Factor H (human, UniProt P08603 19-1231); experiment: steady state tryptophan fluorescence quenching, titration of Factor H with BSP
T2 construct: In some experiments Factor H is the endogenous protein of normal human serum; also called fH; purified human Factor H (Quidel)
Text: (§1) Steady state fluorescence studies were accomplished by titrating purified human complement Factor H with rBSP, rOPN, and rDMP1 followed by excitation at 295 nm and monitoring emission between 300 and 450 nm. The emission profile of Factor H alone yields a peak at 347 nm. The addition of rBSP, rOPN, or rDMP1 in nm increments causes a relative fluorescent intensity quenching. Conversion of the fluorescent intensity titration into a binding curve by determining the fraction of binding sites occupied as the fractional change in fluorescence quenching at 347 nm yields a saturable binding curve. […] Given that normal serum concentration of Factor H is ~0.5 mg/mL it is probable that virtually all BSP, OPN, and DMP1 in serum will be complexed with Factor H.

[3] = molecular target: T2, human complement Factor H; experiment: steady state fluorescence, titration of purified human Factor H with rDMP1
Text: as §1

T2 sequence (P08603 19-1231 limits assumed): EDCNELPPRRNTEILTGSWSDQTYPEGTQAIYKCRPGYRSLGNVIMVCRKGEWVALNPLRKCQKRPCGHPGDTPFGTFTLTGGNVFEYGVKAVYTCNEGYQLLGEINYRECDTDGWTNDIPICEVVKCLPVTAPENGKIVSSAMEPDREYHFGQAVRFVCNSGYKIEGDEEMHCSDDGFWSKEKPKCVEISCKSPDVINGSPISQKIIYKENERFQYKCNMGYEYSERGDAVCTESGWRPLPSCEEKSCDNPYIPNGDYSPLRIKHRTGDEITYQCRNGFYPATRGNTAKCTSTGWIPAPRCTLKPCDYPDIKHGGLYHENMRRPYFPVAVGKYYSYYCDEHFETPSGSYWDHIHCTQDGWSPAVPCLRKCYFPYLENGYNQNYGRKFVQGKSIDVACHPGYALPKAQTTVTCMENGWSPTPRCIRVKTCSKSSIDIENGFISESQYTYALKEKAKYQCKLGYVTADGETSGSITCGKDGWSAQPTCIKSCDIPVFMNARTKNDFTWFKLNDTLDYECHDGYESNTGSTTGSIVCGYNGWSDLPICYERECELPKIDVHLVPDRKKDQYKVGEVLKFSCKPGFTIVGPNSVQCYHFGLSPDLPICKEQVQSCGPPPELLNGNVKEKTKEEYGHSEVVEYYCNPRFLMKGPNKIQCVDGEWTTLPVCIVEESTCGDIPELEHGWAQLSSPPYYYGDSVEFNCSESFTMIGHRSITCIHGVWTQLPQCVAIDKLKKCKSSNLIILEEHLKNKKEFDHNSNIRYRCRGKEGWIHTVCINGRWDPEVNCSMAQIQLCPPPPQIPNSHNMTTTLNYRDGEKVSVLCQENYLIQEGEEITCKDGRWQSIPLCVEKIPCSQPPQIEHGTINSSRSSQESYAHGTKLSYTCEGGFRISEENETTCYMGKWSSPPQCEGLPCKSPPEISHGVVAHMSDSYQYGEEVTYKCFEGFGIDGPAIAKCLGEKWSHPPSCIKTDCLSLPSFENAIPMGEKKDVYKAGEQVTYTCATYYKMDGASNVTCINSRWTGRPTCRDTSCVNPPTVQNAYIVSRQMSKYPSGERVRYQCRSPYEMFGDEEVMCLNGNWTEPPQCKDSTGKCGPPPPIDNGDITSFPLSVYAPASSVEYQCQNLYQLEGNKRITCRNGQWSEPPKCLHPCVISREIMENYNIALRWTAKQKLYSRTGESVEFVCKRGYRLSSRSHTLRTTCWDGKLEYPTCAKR
T1 sequence (P43406 31-1044, chain 1 of 2): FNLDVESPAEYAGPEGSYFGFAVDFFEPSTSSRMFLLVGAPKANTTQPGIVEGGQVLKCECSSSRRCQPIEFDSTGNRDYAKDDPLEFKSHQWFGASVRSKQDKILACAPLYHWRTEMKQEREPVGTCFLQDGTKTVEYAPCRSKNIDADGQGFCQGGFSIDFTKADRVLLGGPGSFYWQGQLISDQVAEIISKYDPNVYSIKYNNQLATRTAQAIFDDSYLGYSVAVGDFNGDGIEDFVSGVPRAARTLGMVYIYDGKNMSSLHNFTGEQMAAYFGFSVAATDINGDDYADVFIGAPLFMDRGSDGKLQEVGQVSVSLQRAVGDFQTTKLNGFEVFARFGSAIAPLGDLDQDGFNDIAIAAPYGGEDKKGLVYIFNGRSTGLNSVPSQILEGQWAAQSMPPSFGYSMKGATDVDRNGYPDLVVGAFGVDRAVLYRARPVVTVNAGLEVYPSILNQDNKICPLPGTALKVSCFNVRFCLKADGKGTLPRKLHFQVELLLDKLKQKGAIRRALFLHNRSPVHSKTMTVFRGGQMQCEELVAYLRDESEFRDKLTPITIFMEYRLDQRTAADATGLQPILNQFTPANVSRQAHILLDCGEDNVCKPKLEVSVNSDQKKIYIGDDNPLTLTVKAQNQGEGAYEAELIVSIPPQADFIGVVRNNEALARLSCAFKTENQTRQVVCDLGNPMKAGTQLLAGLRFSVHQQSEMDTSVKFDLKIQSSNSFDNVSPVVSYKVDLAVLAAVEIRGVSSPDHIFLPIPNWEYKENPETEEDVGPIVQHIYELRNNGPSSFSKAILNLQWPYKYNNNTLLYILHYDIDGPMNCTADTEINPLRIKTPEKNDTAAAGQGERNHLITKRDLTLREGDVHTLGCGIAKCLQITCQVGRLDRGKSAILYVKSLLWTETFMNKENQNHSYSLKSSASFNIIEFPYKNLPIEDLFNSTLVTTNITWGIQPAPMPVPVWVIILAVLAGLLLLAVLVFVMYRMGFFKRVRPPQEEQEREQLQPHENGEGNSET
T1 sequence (O54890 26-787, chain 2 of 2): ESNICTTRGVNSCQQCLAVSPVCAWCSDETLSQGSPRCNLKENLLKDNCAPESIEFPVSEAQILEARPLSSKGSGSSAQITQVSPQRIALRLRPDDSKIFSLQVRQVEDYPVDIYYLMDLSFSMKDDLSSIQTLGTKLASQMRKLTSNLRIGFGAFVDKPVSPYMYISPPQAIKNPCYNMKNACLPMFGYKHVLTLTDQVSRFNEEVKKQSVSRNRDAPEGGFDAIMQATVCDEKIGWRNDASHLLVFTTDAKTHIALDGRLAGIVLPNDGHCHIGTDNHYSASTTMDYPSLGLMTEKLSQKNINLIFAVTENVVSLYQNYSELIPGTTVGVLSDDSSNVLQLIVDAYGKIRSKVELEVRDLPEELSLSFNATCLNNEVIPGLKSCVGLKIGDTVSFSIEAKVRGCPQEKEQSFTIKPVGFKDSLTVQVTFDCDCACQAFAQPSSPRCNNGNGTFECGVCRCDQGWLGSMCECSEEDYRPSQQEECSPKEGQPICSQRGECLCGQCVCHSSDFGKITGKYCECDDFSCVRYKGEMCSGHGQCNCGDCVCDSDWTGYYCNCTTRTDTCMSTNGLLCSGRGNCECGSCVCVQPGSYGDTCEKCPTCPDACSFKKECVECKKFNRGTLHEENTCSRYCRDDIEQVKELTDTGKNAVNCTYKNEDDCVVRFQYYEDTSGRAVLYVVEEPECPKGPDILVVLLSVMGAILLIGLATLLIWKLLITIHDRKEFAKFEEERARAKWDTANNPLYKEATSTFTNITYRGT

Binder | binding result [1] | Kd [2] [nM] | stoichiometry (BSP:Factor H) [2] [mol/mol] | stoichiometry (DMP1:Factor H) [3] [mol/mol]
B1 | binds | ≤ 1 | 1 | –
B2 | – | – | – | 1
